# Reference: PMC10334806 (Proceedings of the National Academy of Sciences of the …, 2023)
# T1: GST-MP (MONOPTEROS / AUXIN RESPONSE FACTOR5) (Arabidopsis thaliana, UniProt P93024 1-902)
# T1 sequence (looked up): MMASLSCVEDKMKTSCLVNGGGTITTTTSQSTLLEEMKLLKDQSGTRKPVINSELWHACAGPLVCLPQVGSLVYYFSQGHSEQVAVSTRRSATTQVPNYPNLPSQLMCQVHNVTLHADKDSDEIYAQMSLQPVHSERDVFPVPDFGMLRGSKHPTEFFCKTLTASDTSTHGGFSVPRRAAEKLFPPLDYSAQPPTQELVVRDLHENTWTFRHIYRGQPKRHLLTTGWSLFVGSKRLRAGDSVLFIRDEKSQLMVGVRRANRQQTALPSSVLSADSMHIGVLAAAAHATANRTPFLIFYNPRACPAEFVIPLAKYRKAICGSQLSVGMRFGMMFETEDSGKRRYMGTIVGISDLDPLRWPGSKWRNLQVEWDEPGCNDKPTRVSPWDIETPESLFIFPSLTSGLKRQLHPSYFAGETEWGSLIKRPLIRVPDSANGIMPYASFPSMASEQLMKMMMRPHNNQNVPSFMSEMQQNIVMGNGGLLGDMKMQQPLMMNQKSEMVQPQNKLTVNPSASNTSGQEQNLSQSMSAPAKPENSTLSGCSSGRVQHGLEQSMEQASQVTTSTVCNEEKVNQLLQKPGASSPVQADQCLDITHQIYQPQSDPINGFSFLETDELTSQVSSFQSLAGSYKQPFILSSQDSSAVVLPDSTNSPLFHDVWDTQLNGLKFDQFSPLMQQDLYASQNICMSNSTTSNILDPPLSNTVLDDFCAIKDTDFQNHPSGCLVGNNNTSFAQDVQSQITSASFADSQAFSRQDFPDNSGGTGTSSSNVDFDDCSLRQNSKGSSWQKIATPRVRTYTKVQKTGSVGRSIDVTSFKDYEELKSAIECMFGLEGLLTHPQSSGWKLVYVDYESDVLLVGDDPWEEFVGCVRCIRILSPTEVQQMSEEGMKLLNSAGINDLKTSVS
# Target: T1, GST-MP (MONOPTEROS / AUXIN RESPONSE …)
# Assay: pull-down
row,Binder,binding result
1,"6xHis-MBP-DRN (residues 1 to 200, protein-protein interaction domain) (domain or fragment) not shown",binds
2,6xHis-MBP-DRNL (DORNROSCHEN-LIKE) (natural protein) not shown,binds
